Results: PMC3530167

Biological target: HLA-DM wild type, biotinylated at a BirA site on the C-terminus of DMα (human) (UniProt P28067)
Assay: SPR

Sequence of UniProt P28067 (P28067 27-261, chain 1 of 2): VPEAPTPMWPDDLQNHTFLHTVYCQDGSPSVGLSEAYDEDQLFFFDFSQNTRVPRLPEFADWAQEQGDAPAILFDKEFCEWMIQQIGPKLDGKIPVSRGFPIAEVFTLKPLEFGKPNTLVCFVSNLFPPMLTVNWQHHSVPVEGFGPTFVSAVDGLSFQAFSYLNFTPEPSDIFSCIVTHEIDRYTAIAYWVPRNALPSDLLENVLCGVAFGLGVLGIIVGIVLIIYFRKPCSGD
Sequence of UniProt P28067 (P28068 19-263, chain 2 of 2, further chain): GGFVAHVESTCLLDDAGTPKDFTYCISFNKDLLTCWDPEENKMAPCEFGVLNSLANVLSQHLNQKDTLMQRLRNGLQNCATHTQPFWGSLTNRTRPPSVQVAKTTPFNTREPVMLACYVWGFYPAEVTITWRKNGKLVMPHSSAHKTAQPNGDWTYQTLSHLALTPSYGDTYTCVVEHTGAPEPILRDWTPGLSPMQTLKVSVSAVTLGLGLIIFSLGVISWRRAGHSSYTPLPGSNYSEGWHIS

HLA-DR1 with a covalently linked, N-terminally truncated HA-like peptide (P2 to P11) (peptide-MHC)
fold lower affinity at pH 6.5 than at pH 5.5: 3 fold
